Reference: patent publication US20170267762A1 (APOLLOMICS, published 2017)

T1: human ICOS (human, UniProt Q9Y6W8 21-140, limits assumed)
T1 sequence (looked up): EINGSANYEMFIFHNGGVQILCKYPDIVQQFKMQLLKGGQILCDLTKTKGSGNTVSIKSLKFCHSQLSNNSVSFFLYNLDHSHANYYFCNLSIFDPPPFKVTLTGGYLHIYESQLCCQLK

T2: human CTLA4 (human, UniProt P16410 36-161, limits assumed)
T2 sequence (looked up): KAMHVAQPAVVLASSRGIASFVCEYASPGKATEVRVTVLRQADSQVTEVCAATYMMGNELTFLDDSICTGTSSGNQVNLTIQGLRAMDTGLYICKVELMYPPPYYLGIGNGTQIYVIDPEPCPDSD

T3: mouse PD-1 (mouse, UniProt Q02242 25-169, limits assumed)
T3 sequence (looked up): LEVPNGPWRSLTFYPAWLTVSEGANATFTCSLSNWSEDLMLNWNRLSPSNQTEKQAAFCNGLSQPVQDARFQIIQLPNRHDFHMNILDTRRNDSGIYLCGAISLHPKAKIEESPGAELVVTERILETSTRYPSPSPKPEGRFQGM


Experiments:
[1] = target: T4, human PD-1 extracellular domain fused with mouse Fc (PD-1-mFc) (human, UniProt Q15116 25-170); test: blockage ELISA, coated PD-1-mFc, competitor PDL-1-mFc-biotin
T4 construct: extracellular domain; not used because of the label; also called hPD-1-mFc; human PD-1-mouse Fc fusion protein
T4 sequence (Q15116 25-170): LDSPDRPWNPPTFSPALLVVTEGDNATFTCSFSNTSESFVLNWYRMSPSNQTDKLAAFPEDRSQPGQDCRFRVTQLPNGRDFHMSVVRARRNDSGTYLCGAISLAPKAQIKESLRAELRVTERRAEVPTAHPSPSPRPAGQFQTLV
Method: (§1) PD-1-mFc antigen (CrownBio) was suspended in PBS (Hyclone,Cat No:SH30256.01B) buffer (2 ug/ml, 100 ul/ well) and coated on the 96 well plate (costar, Cat No.:9018) 4° C. overnight. Plates were washed 3 times using washing buffer: PBS+0.05% Tween 20(Sigma, Cat No.:P1379). 200 ul of blocking buffer (PBS+1%BSA(Roche, Cat No.:738328)), was added to each well, incubated at 37° C. for 1 hour, and washed 3 times. Various concentrations (suitable dilutions of hybridoma supernatant in PBS) of the anti-PD-1 Abs were added to the wells (100 μl/well) and incubated at 37° C. for 1 hour. […] Secondary antibody (Avidin HRP eBioscience cat No.:E07418-1632, 1:500, 100 ul/well) was added, incubated at 37 ° C. for 0.5 hour, and washed 3 times. TMB (Sigma, Cat No.: T0440, 100 ul/well) was added, and incubated for 3 min at RT. To stop the reaction, 2N H2SO4 (100 ul/well), was added. The colorimetric signals were developed and read at 450 nm using a Auto Plate SpectraMax Plus (Supplier: Molecular Devices; Model: MNR0643; Software: SoftMax Pro v5.4).
(§2) The purified hybridoma antibodies were characterized further based on ELISA and FACS analyses.

human CD28 = human CD28 (human, UniProt P10747 19-152, limits assumed); test: Interaction with CTLA4, ICOS CD28; assay not detailed
Sequence of human CD28 (P10747 19-152 limits assumed): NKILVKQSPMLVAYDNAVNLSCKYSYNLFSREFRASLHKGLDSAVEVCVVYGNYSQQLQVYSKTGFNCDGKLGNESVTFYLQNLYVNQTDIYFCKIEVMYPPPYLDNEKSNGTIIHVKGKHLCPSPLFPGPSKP

human ICOS = target: T1, human ICOS; test: as above
human CTLA4 = target: T2, human CTLA4; test: as above
[2] = target: T5, human PD-1 on cells (293T cells transfected with human PD-1) (human, UniProt Q15116 25-288); test: FACS blockage on hPD-1-293T cells, competitor biotin PD-L1
T5 construct: whole, on cells; Also used as the target for the functional rows, where PD-1 stands on human T cells
T5 sequence (Q15116 25-288): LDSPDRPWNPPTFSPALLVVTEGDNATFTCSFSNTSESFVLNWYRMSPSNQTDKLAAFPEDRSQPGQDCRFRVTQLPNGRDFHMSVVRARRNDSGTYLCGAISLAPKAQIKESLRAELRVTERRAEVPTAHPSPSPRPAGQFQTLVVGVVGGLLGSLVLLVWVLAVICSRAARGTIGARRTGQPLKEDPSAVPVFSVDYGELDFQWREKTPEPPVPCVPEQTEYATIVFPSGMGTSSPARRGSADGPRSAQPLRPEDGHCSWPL
Method: (§3) Various concentrations of the testing hybridoma antibodies were added to the cell suspension and incubated at 4° C. for 60 minutes in 96 well plates. […] Plates were washed 3 times, and mouse anti-biotin PE antibody (Biolgend, cat# 409004) was added. Flow cytometric analyses were performed using a FACS Array.
as §2

[3] = target: T5, human PD-1 on cells (293T cells …); test: FACS blockage on hPD-1-293T cells, competitor biotin PD-L2
Method: as §3, §2

mouse PD-1 = target: T3, mouse PD-1; test: assays not detailed
[4] = target: T6, human PD-1 extracellular domain fused with human Fc tag (hPD-1-hFc) (human); test: ELISA binding (summary table)
T6 construct: also called human PD-1-hFc
T6 sequence (chain, as listed by the source limits assumed): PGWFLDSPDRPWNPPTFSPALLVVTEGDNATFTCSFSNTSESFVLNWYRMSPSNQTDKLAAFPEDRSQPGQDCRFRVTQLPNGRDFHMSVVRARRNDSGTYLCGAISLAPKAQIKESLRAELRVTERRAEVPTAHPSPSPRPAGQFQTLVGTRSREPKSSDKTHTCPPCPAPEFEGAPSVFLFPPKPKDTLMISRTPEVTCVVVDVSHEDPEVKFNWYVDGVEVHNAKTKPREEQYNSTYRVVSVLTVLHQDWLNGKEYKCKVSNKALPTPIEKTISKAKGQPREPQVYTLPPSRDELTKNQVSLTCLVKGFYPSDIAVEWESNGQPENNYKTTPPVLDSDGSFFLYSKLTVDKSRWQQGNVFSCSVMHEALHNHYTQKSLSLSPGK
Method: (§4) ELISA binding analysis was conducted based on human PD-1-hFc Protein. 96-well plates (Costar, Cat No:9018) were coated with 100 μL of 2 μg/ml PD1-hFc (CrownBio) in coating buffer (PBS, Hyclone, Cat No:SH30256.01B) overnight at 4° C. The wells were aspirated and non-specific binding sites were blocked by adding 200 μL of blocking buffer with 1% (w/v) of bovine serum albumin (BSA, Roche, Cat No: 738328) and incubating for 1 hour at 37° C. After the plates are washed three times with wash buffer (PBS with 0.05%(v/v) Tween20 (Sigma, Cat No:P1379), 100 μL/well of a suitable dilutions of hybridoma supernatant in blocking buffer were added and incubated at room temperature for 1 hour. The plates were washed and incubated with 100 μL/well of Goat anti-Mouse IgG (H+L) (Thermo, Cat No: 31432) in blocking buffer for 60 min. After the plates were washed, 100 μL/well of substrate solution (TMB(eBioscience, Cat No:00-4201-56) was added and the plates were incubated for 2min at room temperature. 100 μL/well of stop solution (2N H2SO4) was added to stop the reaction. The colorimetric signals were developed and read at 450 nm using a Auto Plate SpectraMax Plus (Supplier: Molecular Devices; Model: MNR0643; Software: SoftMax Pro v5.4).
as §2

[5] = target: T4, human PD-1 extracellular domain fused …; test: blockage ELISA, competitor PDL-1-mFc-biotin (summary table; IC50 in ng/ml in Table 2)
Method: as §1

[6] = target: T7, human PD-1 (construct not stated) (human, UniProt Q15116 25-167, limits assumed); test: Biacore (summary table; unit from Table 7)
T7 construct: also called PD-1 analyte
T7 sequence (Q15116 25-167 limits assumed): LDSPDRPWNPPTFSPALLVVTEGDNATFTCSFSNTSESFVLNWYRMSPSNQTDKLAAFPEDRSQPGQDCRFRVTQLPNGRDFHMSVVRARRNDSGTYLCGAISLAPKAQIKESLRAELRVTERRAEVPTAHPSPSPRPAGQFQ
Method: (§5) To further characterize the binding characteristics of the antibodies, 10 hybridoma antibodies were profiled using Biacore (Biacore 3000, GE) to elucidate binding kinetics and calculate equilibrium binding constants. This assay was performed by capture method, using the mouse antibody capture kit (BR-1008-38, GE). After diluting anti-mouse Fc mab to 25 μg/ml in pH 5.0 immobilization buffer, immobilization was conducted with the parameters shown in Table 6 at a flow rate of 5 μl/min. The kinetic runs were done by 1) injecting ligand for typical 0.5-1 min at flow rate of 10 μl/min.; 2) injecting analytes of choice for typical 3 min followed by dissociation in running buffer (1× PBS-P20) for typical 5-10 min at flow rate of 30 μl/min.; and 3) injecting regeneration solution 10 mM Glycine pH1.7 for typical 1-2 min at flow rate of 10 μl/min.

[7] = target: T7, human PD-1 (construct not stated); test: Biacore, antibody captured, PD-1 analyte
Method: as §5

[8] = target: T6, human PD-1 extracellular domain fused …; test: ELISA on coated PD1-hFc
Method: as §4, §2

[9] = target: T5, human PD-1 on cells (293T cells …); test: FACS on hPD-1-293T cells
Method: The cells were incubated with the indicated antibody (20 ug/ml with the dilution of ⅕) at 4° C. for 1 h. Cells were washed three times with FACS buffer. A secondary antibody (PE Goat anti-mouse: 1:200; PE mouse anti-human: 1:10) was added to the cells at 100 ul/well, and incubated at 4° C. for 40min. Cells were washed three times with FACS buffer and analyzed by FACS Array.
as §2

IC50 [1] | binding result (human CD28) | binding result (human ICOS) | binding result (human CTLA4) | IC50 [2] | IC50 [3] | binding result (mouse PD-1) | EC50 [4] | IC50 [5] | Kd [6] | Ka [7] | Kd [7] | koff [7] | kon [7] | EC50 [8] | EC50 [9] | Binder
0.701 µg/mL | no binding | no binding | no binding | 0.0199 µg/mL | 0.0529 µg/mL | no binding | 0.0173 µg/mL | 0.701 µg/mL | 0.0278 nM | 3.6e+10 M⁻¹ | 0.0278 nM | 3.92e-05 s⁻¹ | 1.41e+06 M⁻¹ s⁻¹ | 0.0173 µg/mL | 0.0308 µg/mL | 13F1 murine anti-PD-1 antibody (antibody, V domains shown, Purified hybridoma antibody; also called 13F1-mIgG1) VH: DVQLQESGPGLVKPSQSLSLTCTVTGYSITSDYAWNWIRQFPGNQLEWMAYISYSGYTSYNPSLKSRISITRDTSKNQFFLQLNSVTTEDTATYYCARSLDYDYGTMDYWGQGTSVTVSS VL: QIVLSQSPAILSASPGEKVTMTCRANSSVSSMHWYQQKPGSSPEPWIYAISNLAFGVPTRFSGSGSGTSYSLTISRVEAEDAATYFCQQWSSRPPTFGGGTKLEIKR
1.11 µg/mL | no binding | no binding | no binding | 0.0562 µg/mL | 0.21 µg/mL | no binding | 0.0194 µg/mL | 1.11 µg/mL | 0.0193 nM | 5.17e+10 M⁻¹ | 0.0193 nM | 2.88e-05 s⁻¹ | 1.49e+06 M⁻¹ s⁻¹ | 0.0194 µg/mL | 0.0775 µg/mL | 22A5 murine anti-PD-1 antibody (antibody, V domains shown, Purified hybridoma antibody; also called 22A5-mIgG1) VH: EVKLVESGGGLVKPGGSLKLSCSASGFSFSYYDMSWVRQTPEKGLEWVATISGGGRNTYFIDSVKGRFTISRDNVKNNLYLLMSSLRSEDTALYYCASPYEGAVDFWGQGTSVTVSS VL: DIVMTQSHKVMSTSVGDRVSITCKASQDVDNAVAWYQQNPGQSPKLLIKWASTRHHGVPDRFTGSGSGTDFTLTISTVQSEDLADFFCQQYSTFPYTFGGGTKLEIKR
0.699 µg/mL | no binding | no binding | no binding | 0.0289 µg/mL | 0.00445 µg/mL | no binding | 0.00932 µg/mL | 0.699 µg/mL | – | 4.06e+10 M⁻¹ | 0.0246 nM | 4.82e-05 s⁻¹ | 1.96e+06 M⁻¹ s⁻¹ | 0.00932 µg/mL | 0.0389 µg/mL | 7A4 murine anti-PD-1 antibody (antibody, V domains shown, Purified hybridoma antibody; also called 7A4-mIgG1) VH: QIHLVQSGPELKKPGETVKISCKASGYTFTNFGMNWVKQAPGKGLKWMGWISGYTREPTYAADFKGRFAISLETSASTAYLQINDLKNEDMATYFCARDVFDYWGQGTTLTVSS VL: DIVLTQSPASLAVSLGQRATISCRASESVDNYGYSFMNWFQQKPGQPPKLLIYRASNLESGIPARFSGSGSRTNFTLTINPVEADDVATYFCQQSNADPTFGGGTNLEIKR
0.961 µg/mL | no binding | no binding | no binding | 0.0268 µg/mL | 0.114 µg/mL | no binding | 0.0157 µg/mL | 0.961 µg/mL | 0.0255 nM | 3.92e+10 M⁻¹ | 0.0255 nM | 2.83e-05 s⁻¹ | 1.11e+06 M⁻¹ s⁻¹ | 0.0157 µg/mL | 0.0491 µg/mL | 6E1 murine anti-PD-1 antibody (antibody, V domains shown, Purified hybridoma antibody; also called 6E1-mIgG1) VH: EVKLVESGGGLVKPGGSLKLSCAASGFTFSSYGMSWVRQTPEKRLEWVATISGGGRDTYYLDSVKGRFTISRDNAKNNLYLQMSSLRSEDTALYYCVRQYYDDWFAYWGQGTLVSNSA VL: DIVLTQTPATLSVTPGDSVSLSCRASQSLSNNLHWYQQKSHESPRLLIKYASQSISGIPSRFSGSGSGTDFTLSINSVETEDFGMYFCQQSNSWPLTFGAGTKLEMKR
0.873 µg/mL | no binding | no binding | no binding | 0.0356 µg/mL | 0.063 µg/mL | no binding | 0.0134 µg/mL | 0.873 µg/mL | 0.0184 nM | 5.44e+10 M⁻¹ | 0.0184 nM | 3.67e-05 s⁻¹ | 2e+06 M⁻¹ s⁻¹ | 0.0134 µg/mL | 0.0454 µg/mL | 15H5 murine anti-PD-1 antibody (antibody, V domains shown, Purified hybridoma antibody; also called 15H5-mIgG1) VH: EVKLVESGGGLVKPGGSLKLSCAASGFAFRSYDMSWVRQTPEKILEWVATISGGGSYTYYQDSVKGRFTISRDNARNTLYLQMSSLRSEDTALYYCASPYGPYFDYWGQGTTLTVSS VL: DIQMNQSPSSLSASLGDTITITCHASQSINVWLSWYQQKPGNIPKLLIYRASNLHTGVPSRFSGSGSGTGFTLTISSLQPDDIATYYCQQGQSYPWTFGGGTKLEIKR
